These results are taken from patent publication US11807881B2, “Polypeptide, fusion polypeptide, and antibiotic against gram-negative bacteria comprising same” (priority 2020, dated 2023).

One experiment deals with Escherichia coli. In words: CFU reduction evaluation. The note with it: E. coli (ATCC 8739); 2 μM, 2 hours. The format is cell-based. The protocol: (§1) In order to confirm the killing ability against gram negative bacterium of the fusion polypeptide LNT103 prepared in Example 3.2, CFU reduction evaluation was performed for various gram negative bacterium. In order to perform the CFU reduction evaluation, 2 μM of each of LNT101, LNT102, and LNT103 prepared in Example 3, and 1×10^6 CFU of each of Pseudomonas aeruginosa (PA01; ATCC 15692), Acinetobacter baumannii (ATCC 17978), Escherichia coli (ATCC 8739), Klebsiella pneumoniae (ATCC 13883), and Enterobacter aerogenes (CCARM 16006) were added to reaction buffer (20 mM Tris-Cl, pH7.5) so that the final volume was 200 μl, and it was left at 37° C. for 2 hours. After that, the number of the colonies of each gram negative bacterium was confirmed to compare and evaluate the antibiotic effect of each polypeptide. As a control group, the PBS treatment group (treating PBS in the same volume as the fusion polypeptide) was used.

Another experiment deals with Klebsiella pneumoniae. The experiment in a line: CFU reduction evaluation. The note with it: Klebsiella pneumoniae (ATCC 2208); 2 μM, 2 hours. It counts as cell-based. The protocol:
as §1

The test system of experiment [1] is Acinetobacter baumannii (ATCC 19606). The experiment in a line: FIC index, combination of colistin and LNT103. It counts as cell-based. Particulars: LNT103 in combination with colistin (polymyxin E). The protocol:
The synergy effect of killing ability against gram negative bacterium by combination treatment of a polymyxin-based antibiotic having a mechanism acting on the cell membrane of bacterium and the fusion polypeptide LNT103 was confirmed. Specifically, colistin (polymyxin E) of […] was treated to a 96 well microplate column 1, and it was treated at a concentration where serial dilution was performed by ½ in columns 2-11. The LNT103 of 16 μg/ml was treated to row A, and it was treated at a concentration where serial dilution was performed by ½ in rows B-G. After that, Acinetobacter baumannii (ATCC 19606) was treated in an amount of 5×10^5 CFU/ml, total 100 μl in all wells. Then, it was cultured at 37° C. for 18 hours, and the FIC (Fractional Inhibitory Concentration) index value was calculated by the following equation: FIC index=FICA+FICB=(CA/MICA)+(CB/MICB)
(CA and CB are each concentration of substances treated in combination (polymyxin E and LNT103), and MICA and MICB are MIC of single drug,
FIC value: synergy effect <0.5; antagonism >4; additive 0.5-4)

The subject of experiment [2] is Acinetobacter baumannii ATCC 19606. In words: Acinetobacter baumannii systemic infection mouse model, viability. It counts as in vivo. The note with it: ICR male mice; LNT103 20 mpk and 100 mpk, subcutaneous injection 1 hour and 4 hours after infection; comparative colistin 20 mpk. The protocol: For in vivo effectivity evaluation of the fusion polypeptide LNT103, the viability was confirmed in an Acinetobacter baumannii ATCC 19606 systemic infection mouse model was confirmed.
The process of progressing an animal experiment was as follows. Mice were used when ICR male 4-week-old mice were purchased and a one-week adaptation period was passed, and the weight was 20˜21 g at 5-6 weeks of age. The Acinetobacter bacteria were mixed with 10% mucin at 1:1, and 0.5 ml of 2×10^8 CFU/ml (5% mucin) of the bacterial solution was inoculated intraperitoneally into mice. In 1 hour and 4 hours after infection, LNT103 20 mpk and LNT103 100 mpk, and colistin 20 mpk as a comparative group were administered, respectively, through a subcutaneous injection.

The next experiment deals with Pseudomonas aeruginosa. In words: CFU reduction test (killing ability in vitro). It counts as cell-based. The protocol:
For this, the endolysin LNT101 at a concentration of 0.1, 0.5, 1.0 μM and Pseudomonas aeruginosa (ATCC 13388) […] CFU were added so that the final volume was 200 μl to reaction buffer (20 mM Tris-Cl, pH 7.5) and they were left at 37° C. for […]. In 30 minutes, 1 hour and 2 hours, the number of colonies of Pseudomonas aeruginosa was confirmed, and the result was shown in FIG. 3.
(§2) In addition, that the LNT101 endolysin had the antibacterial ability in various gram negative bacterium was confirmed by a CFU reduction test, and the result was shown in Table 2 below.

The subject of a further experiment is Enterobacter cloacae. In words: CFU reduction test. It counts as cell-based. The note with it: E. cloacae CCARM 0252.
Text: as §2

In the next experiment the test system is Klebsiella aerogenes. In words: CFU reduction test. The format is cell-based. The note with it: K. aerugenes CCARM 16006.
Text: as §2

For experiment [3], the system named is Pseudomonas aeruginosa PA01. The experiment in a line: Galleria mellonella Pseudomonas aeruginosa infected model, viability. The format is in vivo. Particulars: PA01 50 CFU/larva. The protocol:
The Pseudomonas aeruginosa killing ability of the endolysin LNT101 was also confirmed in vivo. As an animal model for the in vivo effectivity evaluation, Galleria mellonella was used. The Galleria mellonella model was divided into the healthy group (non-infection group), Pseudomonas aeruginosa infected group (drug non-administration group), 2 LNT101 administration groups in which LNT101 was administered into the infection model, Colistin administration group in which colistin was administered into the Pseudomonas aeruginosa infected model, and combination administration group in which LNT101 and colistin were administered in combination into the Pseudomonas aeruginosa infected model to progress an experiment, and 10 of Galleria mellonella per each group was used.
The Pseudomonas aeruginosa infected model was prepared by infecting Pseudomonas aeruginosa PA01 at the LD80 concentration, 50 CFU/larva, and LNT101 was administered at 0.6 μg/larva (3 mg/Kg) and 6 μg/larva (30 mg/Kg), respectively. Colistin was administered at 0.5 μg/larva (2.5 mg/Kg), and for administration in combination, Colistin at 0.5 μg/larva (2.5 mg/Kg) and LNT101 at 6 μg/larva (30 mg/Kg) were administered. […] In particular, in the LNT101 6 μg/larva (30 mg/Kg) administration group, the viability of 30% was confirmed.

B1: LNT103: fusion polypeptide [Cecropin A]-[linker (GSGSGS)]-[endolysin LNT102]; SEQ ID NO: 15 (MAS, His tag) used in the tests (protein)
chain: MASKWKLFKKIEKVGQNIRDGIIKAGPAVAVVGQATQIAKGSGSGSMGTVLKRGDRGSAVEDLQMKLNVAGYNLSADGIFGGDTEKAVRDVQAGAGLVVDGKVGPKTLYAIAKSATVPAKWEAIPFPTANKSRSAAMPTLNAVGAMTGVDSRLLATFASIESAFDYTVKAKTSSATGWFQFLDATWDDMIKAYGSKYGIPKDPTRALRKDPRANALMGAEFIKGNAAVLRPVINREPSDTDLYLAHFLGAGGAKKFLSADQKTLGEVLFPKPAKANPSIFSNKGVPRTLAEIYKLFEDKVSKHRALEHHHHHH
modifications: synthetic_Fusion Polypeptide LNT103 with MAS, His tag, and extra sequence
Take B1: the “CFU Counting result” value in the experiment on Escherichia coli and with Klebsiella pneumoniae was 0 log CFU/ml in each case. The FIC index value in experiment [1] (5×10^5 CFU/ml, 37° C. 18 hours) is on record as 0.375. For the same molecule, in experiment [1] (synergy effect <0.5), the “interaction of the two substances by FIC index” value is listed as “there was a synergy effect between the two substances”. Besides, in experiment [2], the “viability for 96 hours” value was “higher viability compared to the non-administration group (control) and comparative group (colistin administration group)”.

B2: LNT101: endolysin derived from bacteriophage PBPA90, amino acid sequence SEQ ID NO: 1 (259 aa), purified with 6× His tag (protein)
chain: MGTVLKRGDRGSAVEDLQMKLRVAGYAVSADGIFGGDTEKAVRDFQASKALVVDGKVGPATLAELAKSATVPAKWEAIPFPTANKSRSAAMPTLNAVGAMTGTDSRLLATFASIESAFDYTVKASTSSATGWFQFLDATWDDMIKAHGSKYGIPKDPTRALRKDPRANALMGAEFLKGNAAVLRPVINREPSDTDLYLAHFLGAGGAKKFLSADQKTLGEVLFPKPAKANPSIFSNKGVPRTLAEIYKLFEDKVSKHRA
modifications: 6xHis tag; synthetic_Endolysin LNT101
For the molecule B2, in the experiment with Pseudomonas aeruginosa (ATCC 13388 10^6 CFU, 0.1, 0.5, 1.0 μM, 30 minutes, 1 hour and 2 hours, 37° C.), the “killing ability against Pseudomonas aeruginosa (number of colonies)” value is “had the killing ability against Pseudomonas aeruginosa in all the tested treatment dose and time”. Besides, the CFU reduction result with Pseudomonas aeruginosa (P. aeruginosa ATCC 13388), in the experiment with Pseudomonas aeruginosa (P. aeruginosa ATCC 15522), in the experiment with Pseudomonas aeruginosa (P. aeruginosa CCARM 2092), with Pseudomonas aeruginosa (P. aeruginosa CCARM 2134), in the experiment on Pseudomonas aeruginosa (P. aeruginosa CCARM 2144) and in the experiment with Pseudomonas aeruginosa (P. aeruginosa CCARM 2326) was “◯ (‘◯’ means reduction of 0.5 log CFU or more through the CFU reduction assay)” each time. Also, the CFU reduction entry with Pseudomonas aeruginosa (P. aeruginosa F141), in the experiment with Pseudomonas aeruginosa (P. aeruginosa PAO1), in the experiment on Enterobacter cloacae and in the experiment with Klebsiella aerogenes was “◯ (‘◯’ means reduction of 0.5 log CFU or more through the CFU reduction assay)” each time. Besides, the “viability of Galleria mellonella” value in experiment [3] (LNT101 6 μg/larva (30 mg/Kg), 72 hours) is recorded as 30%; in experiment [3] (LNT101 0.6 or 6 μg/larva, Colistin 0.5 μg/larva, observation for 72 hours) it was “the viability was increased”.
